Key:
Assay type in all cases: cell-based
[1] = test system: MCF-7 cells (human breast cancer cell line that express HER2 and HER3); assay: MCF-7 cell proliferation stimulation assay (WST-1); settings: serum-free, 72 hours, FIG. 4
Procedure: MCF-7 cells were obtained from the American Type Culture Collection (ATCC). Stock cultures of MCF-7 were maintained in Eagle's MEM supplemented with 1% ITS-X (Invitrogen) and 10% fetal bovine serum. For proliferation assays, MCF-7 cells were transferred to serum-free medium (SFM) for 24 hours and then trypsinized and suspended at 1E5 cells/mL in SFM. Fifty microliters of cell suspension (5000 cells) were plated per well in 96 well microtiter plates. Serial dilutions of HER ligands or mutant proteins were prepared at twice the final concentration in SFM and 50 ul was added to wells, bringing the final volume to 100 ul at the desired final concentration. Plates were incubated for 72 hours at 37 C in a humidified 5% CO2 atmosphere. Cell proliferation was determined by addition of 10 ul/well of WST-1 Cell Proliferation Reagent (Roche Applied Sciences, Indianapolis, Ind.) for the last three hours of the proliferation period.

EGFR = target: T1, EGFR (Homo sapiens, UniProt P00533); assay: Autophosphorylation of EGFR in A431 cells; settings: epithelial cancer cell line, FIG. 2
T1 construct: Autophosphorylation of EGFR in A431 cells, an epithelial cancer cell line; endogenous in cells; host or cells: A431 cells

[2] = test system: HER5 cells (mouse fibroblast cells that overexpress human EGFR); assay: HER5 cell proliferation stimulation assay (WST-1); settings: serum-free, 48 hour proliferation period, FIG. 3
Procedure: Hung (MD Anderson Cancer Center). Stock cultures of HER5 were propagated in D-MEM/F12 medium containing 10% fetal bovine serum, 100 units/ml of penicillin and 100 ug/ml of streptomycin in a water-jacketed incubator at 37° C. in a humidified 5% CO2 atmosphere. For HER5 proliferation assays, the cells were changed into DMEM/F12 without serum for 24 hours. Cells were then trypsinized and suspended at 1E5 cells/ml. […] Fifty microliters of cell suspension (5000 cells) were added to appropriate wells bringing the total volume to 100 ul at the desired concentrations. Plates were incubated for a 48 hour proliferation period. Cell proliferation was determined by addition of 10 ul/well of WST-1 Cell Proliferation Reagent (Roche Applied Sciences, Indianapolis, Ind.) for the last three hours of the proliferation period. WST-1 is a tetrazolium salt that is cleaved to formazan dye by mitochondrial dehydrogenases in viable cells. The amount of formazan was measured at 450 nm using a microplate reader (Dynex Technologies) with MRX Revelation software.

| stimulation of autophosphorylation of EGFR (EGFR) | Molecule | stimulation of MCF-7 cells (proliferation) [1] | stimulation of HER5 cells (proliferation) [2] |
| --- | --- | --- | --- |
| – | heregulin (protein) SHLVKCAEKEKTFCVNGGECFMVKDLSNPSRYLCKCPNEFTGDRCQNYVMASFYKHLGIEFMEAEELY | can be stimulated | – |
| stimulated | BiRegulin: chimeric EGF homolog, amino terminal residues (NSDSE) of EGF replaced with corresponding residues of HRGβ1 (SHLVK) (protein) HHHHHHIEGRSHLVKCPLSHDGYCLHDGVCMYIEALDKYACNCVVGYIGERCQYRDLKWWELR | can be stimulated | can be stimulated |
| does not stimulate autophosphorylation | BiRV35EG39L: BiRegulin with glycine 39 replaced by leucine and valine 35 replaced with glutamate (protein) HHHHHHIEGRSHLVKCPLSHDGYCLHDGVCMYIEALDKYACNCVEGYILERCQYRDLKWWELR | Neither cell line is stimulated | Neither cell line is stimulated |

From patent publication US7557181B2, “Pan-HER antagonists and methods of use” (Molecular Logix, Inc., priority 2005, dated 2009)
